From US20110010785A1, “PRODUCTS AND THEIR USE FOR THE DIAGNOSIS, PREVENTION AND/OR CARE OF HUMAN AND/OR ANIMAL PATHOLOGIES CHARACTERISED BY THE ANOMALOUS DEPOSITION OF B-AMYLOID AND/OR AMYLOID-LIKE SUBSTANCE IN HUMAN AND/OR ANIMAL ORGANS AND TISSUES, AND SCREENING METHOD FOR DETERMINING THE RISK OF SUCH PATHOLOGIES” (Fondazione I.R.C.C.S Istituto Neurologico "Carlo Besta", priority 2007, published 2011)

Target: T1, wild-type Aβ1-40 (Homo sapiens, UniProt P05067)
T1 construct: lipophile probe (4-dodecylaminocarbonylfluorene-9-ylmethylsuccinimidyl carbonate), non-protein purification handle (N); made in house; host or cells: chemical solid phase synthesis (no expression host)
T1 sequence (P05067 672-711): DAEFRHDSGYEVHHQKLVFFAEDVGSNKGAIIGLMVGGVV
Experiment: Inhibition of amyloidogenesis: hexapeptides co-incubated with wild-type Aβ1-40 (ultrastructural and histochemical study)
Assay type: biochemical
Settings: for effect on fibrillogenesis of Aβ1-40: co-incubated with wild-type Aβ1-40, equimolar or in excess (hexapeptide:Aβ1-40=5:1)
Procedure: For the ultrastructural investigation, 5 μl of suspension of wild-type Aβ1-40, mutated Aβ1-40 and their equimolar mixture were drawn at incubation times in the range of 1 hour-20 days, deposited on nickel screen covered with Formvar-Carbon for 5 minutes, negatively coloured with an over-saturated solution of uranyl and observed under electronic microscope (EM109 Zeiss). On the twentieth day of incubation, aliquots of the samples were centrifuged at 15,000 g for 15 minutes. The pellets thus obtained were fixed in 2.5% glutaraldehyde in phosphate buffer, pH 7.4, post-fixed in 1% osmium tetroxide, dehydrated in acetone and included in epoxy rein (Spurr, Electron Microscopy Sciences). Ultrafine sections (500 Å) were collected on copper screens, coloured with uranyl acetate and lead citrate and observed under the electronic microscope.
In order to verify if and in what measure the aggregates were constituted by amyloid, 5 μl of solution of each sample, for the different incubation times, was collected on polylysinated slides (Bio-Optical), coloured with Congo Red and examined with polarised light microscope (Nikon Eclipse E-800).
The two hexapeptides were co-incubated with wild-type Aβ1-40 at equimolar concentration or in excess (hexapeptide:Aβ1-40=5:1). The mixtures were prepared for the ultrastructural and histochemical study as described in example 2.

DAEFRH
effect on fibrillogenesis of Aβ1-40: inhibit the fibrillogenesis of Aβ1-40

DVEFRH [synthetic peptide, first six amino acids of Aβ with valine in place of alanine in position 2]
inhibitory activity on fibrillogenesis relative to wild-type hexapeptide (co-incubated with wild-type Aβ1-40, equimolar or 5:1): more active than the corresponding wild-type | effect on fibrillogenesis of Aβ1-40: inhibit the fibrillogenesis of Aβ1-40
